Measurements as given in US20250129150A1 (APOGEE THERAPEUTICS, published 2025).

Tests used:
[1] = molecular target: biotinylated hIL-13 (human, UniProt P35225 35-146, limits assumed, biotinylated (site not stated)); experiment: FACS; blockade of biotinylated hIL-13 (0.05 ug/mL) binding to HEK293 cells expressing hIL-13Rα1/hIL-4Rα
Protocol: Briefly, HEK293 previously transduced to stably express both hIL-13Rα and hIL-4Rα were cultured and harvested. Cells were seeded at 200,000 cells in 100 uL per well. Cells were washed and the supernatant was discarded. […] The cells were stained in this mixture at 4° C. for 1 hour. […] Cells were incubated at 4° C. for 1 hour, protected from light. Cells were then washed and the median fluorescence intensity (MFI) of cells in each well were recorded by FACS using a BD FACSCanto II. Subsequent data were analyzed using GraphPad Prism.

[2] = molecular target: T1, Recombinant Human IL-13 Protein, His Tag (Acro Cat. IL3-H52H4) (human, UniProt P35225 35-146); experiment: SPR (Biacore 8K), mAb captured on Protein G chip, IL-13 as analyte
T1 construct: Bought protein; also called Hu IL-13; not shown: His Tag
Protocol: (§1) Samples were injected in a multi-cycle manner over freshly captured mAb, by regenerating the capture surfaces with injection of glycine pH 1.5 for 30 sec at a flow rate of 30 μL/min. The data was processed and analyzed with Biacore Insight Evaluation Software Version 2.0.15.12933 (GE Healthcare) as follows. […] The responses from the two buffer blank injections were then subtracted from the reference subtracted data (2-1) to yield double-referenced data, which were fit to an 1:1 binding model to determine the apparent association (ka) and dissociation rate constants (kd). Their ratio provided the apparent equilibrium dissociation constant or affinity constant (KD=kd/ka).

[3] = molecular target: T2, Recombinant Cynomolgus IL-13 Protein, His Tag (SINO BIOLOGICAL, Cat. 11057-C07H) (cynomolgus monkey, UniProt Q5I6E4 19-132 (Macaca thibetana entry)); experiment: as above
T2 construct: also called Cyno IL-13; cynomolgus monkey IL-13
T2 chain: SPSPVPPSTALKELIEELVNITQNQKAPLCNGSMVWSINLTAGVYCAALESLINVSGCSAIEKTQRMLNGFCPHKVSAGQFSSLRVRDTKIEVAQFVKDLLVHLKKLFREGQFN
Protocol: as §1

[4] = molecular target: T3, hIL-13 (human, UniProt P35225 35-146, limits assumed); experiment: cell-based or functional assay
[5] = molecular target: T3, hIL-13; experiment: cell-based or functional assay; remark: listed apart in the source
[6] = molecular target: T3, hIL-13; experiment: cell-based or functional assay; remark: listed apart in the source
[7] = molecular target: T3, hIL-13; experiment: ELISA

T1 sequence (P35225 other isoform, or with tags, fused parts or gaps limits assumed): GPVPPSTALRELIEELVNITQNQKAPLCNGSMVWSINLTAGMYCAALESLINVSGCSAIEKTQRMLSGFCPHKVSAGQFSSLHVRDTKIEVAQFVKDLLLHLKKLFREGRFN
T3 sequence (P35225 other isoform, or with tags, fused parts or gaps limits assumed): as above
biotinylated hIL-13, sequence (P35225 other isoform, or with tags, fused parts or gaps limits assumed): as above

B1: Construct 128 (antibody, human IgG4, kappa)
heavy: QVTLRESGPALVKPTQTLTLTCTVSGFSLSAYSVNWIRQPPGKALEWLAMIWGDGKIVYNSALKSRLTISKDTSKNQVVLTMTNMDPVDTATYYCAGDGYYPYAMDNWGQGSLVTVSSASTKGPSVFPLAPCSRSTSESTAALGCLVKDYFPEPVTVSWNSGALTSGVHTFPAVLQSSGLYSLSSVVTVPSSSLGTKTYTCNVDHKPSNTKVDKRVESKYGPPCPSCPAPEFLGGPSVFLFPPKPKDTLYITREPEVTCVVVDVSQEDPEVQFNWYVDGVEVHNAKTKPREEQFNSTYRVVSVLTVLHQDWLNGKEYKCKVSNKGLPSSIEKTISKAKGQPREPQVYTLPPSQEEMTKNQVSLTCLVKGFYPSDIAVEWESNGQPENNYKTTPPVLDSDGSFFLYSRLTVDKSRWQEGNVFSCSVMHEALHNHYTQKSLSLSLGK
light: DIVMTQSPDSLSVSLGERATINCRASKSVDSYGNSFMHWYQQKPGQPPKLLIYLASNLESGVPDRFSGSGSGTDFTLTISSLQAEDVAVYYCQQNNEDPRTFGGGTKVEIKRTVAAPSVFIFPPSDEQLKSGTASVVCLLNNFYPREAKVQWKVDNALQSGNSQESVTEQDSKDSTYSLSSTLTLSKADYEKHKVYACEVTHQGLSSPVTKSFNRGEC
notes: also called Lebrikizumab-HC; Lebrikizumab-LC
B1 gave an IC50 [1] of 0.95 nM, a Kd [2] of 0.0915 nM and a Kd [3] of 0.298 nM. For the same binder, the “TF-1 Proliferation Inhibition IC50” value [4] was 0.2 nM, the “TARC Inhibition IC50 (A549 cells)” value [5] was 1.01 nM and the “pSTAT6 Inhibition IC50 (HT-29 cells)” value [6] was 0.28 nM. The Kd [7] was 0.067 nM.

B2: Construct 144 (antibody, human IgG1, kappa, L234A L235A)
heavy: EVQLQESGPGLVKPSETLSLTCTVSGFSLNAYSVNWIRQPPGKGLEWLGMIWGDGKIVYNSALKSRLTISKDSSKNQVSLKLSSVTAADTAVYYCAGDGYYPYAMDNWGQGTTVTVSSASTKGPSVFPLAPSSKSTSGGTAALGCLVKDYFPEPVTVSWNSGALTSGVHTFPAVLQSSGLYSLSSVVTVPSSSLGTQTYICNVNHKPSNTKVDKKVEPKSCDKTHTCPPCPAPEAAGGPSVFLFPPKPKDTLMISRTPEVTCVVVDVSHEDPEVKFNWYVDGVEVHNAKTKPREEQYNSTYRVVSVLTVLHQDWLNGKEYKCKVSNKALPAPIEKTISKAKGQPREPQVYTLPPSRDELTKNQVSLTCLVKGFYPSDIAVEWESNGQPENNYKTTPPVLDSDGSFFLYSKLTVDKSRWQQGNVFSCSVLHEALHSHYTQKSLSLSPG
light: DIQLTQSPSSLSASVGDRVTITCRASKSVDSYGNSFMHWYQQKPGKAPKLLIYLASELESGVPSRFSGSGSGTDFTLTISSLQPEDFATYYCQQNNEDPRTFGGGTKVEIKRTVAAPSVFIFPPSDEQLKSGTASVVCLLNNFYPREAKVQWKVDNALQSGNSQESVTEQDSKDSTYSLSSTLTLSKADYEKHKVYACEVTHQGLSSPVTKSFNRGEC
notes: also called HC1; LC6_m8
With B2 the IC50 [1] was 0.94 nM, the Kd [2] was 0.0263 nM and the Kd [3] was 0.228 nM. The “TF-1 Proliferation Inhibition IC50” value [4] was 0.17 nM, the “TARC Inhibition IC50 (A549 cells)” value [5] was 0.91 nM and the “pSTAT6 Inhibition IC50 (HT-29 cells)” value [6] was 0.3 nM. The Kd [7] was 0.014 nM.

B3: Construct 143 (antibody, human IgG4, kappa)
heavy: EVQLQESGPGLVKPSETLSLTCTVSGFSLNAYSVNWIRQPPGKGLEWLGMIWGDGKIVYNSALKSRLTISKDSSKNQVSLKLSSVTAADTAVYYCAGDGYYPYAMDNWGQGTTVTVSSASTKGPSVFPLAPCSRSTSESTAALGCLVKDYFPEPVTVSWNSGALTSGVHTFPAVLQSSGLYSLSSVVTVPSSSLGTKTYTCNVDHKPSNTKVDKRVESKYGPPCPSCPAPEFLGGPSVFLFPPKPKDTLMISRTPEVTCVVVDVSQEDPEVQFNWYVDGVEVHNAKTKPREEQFNSTYRVVSVLTVLHQDWLNGKEYKCKVSNKGLPSSIEKTISKAKGQPREPQVYTLPPSQEEMTKNQVSLTCLVKGFYPSDIAVEWESNGQPENNYKTTPPVLDSDGSFFLYSRLTVDKSRWQEGNVFSCSVLHEALHSYTQKSLSLSLGK
light: DIQLTQSPSSLSASVGDRVTITCRASKSVDSYGNSFMHWYQQKPGKAPKLLIYLASELESGVPSRFSGSGSGTDFTLTISSLQPEDFATYYCQQNNEDPRTFGGGTKVEIKRTVAAPSVFIFPPSDEQLKSGTASVVCLLNNFYPREAKVQWKVDNALQSGNSQESVTEQDSKDSTYSLSSTLTLSKADYEKHKVYACEVTHQGLSSPVTKSFNRGEC
notes: also called HC1; LC6_m8
For B3, the IC50 [1] was 0.74 nM, the Kd [2] was 0.119 nM and the Kd [3] was 0.685 nM. For the same binder, the “TF-1 Proliferation Inhibition IC50” value [4] was 0.17 nM, the “TARC Inhibition IC50 (A549 cells)” value [5] was 0.92 nM and the “pSTAT6 Inhibition IC50 (HT-29 cells)” value [6] was 0.36 nM.

B4: Construct 139 (antibody, human IgG4, kappa)
heavy: EVQLLESGGGLVQPGGSLRLSCAASGFSLNAYSVNWVRQAPGKGLEWLGMIWGDGKIVYNSALKSRLTISKDSSKNTVYLQMNSLRAEDTAVYYCAGDGYYPYAMDNWGQGTTVTVSSASTKGPSVFPLAPCSRSTSESTAALGCLVKDYFPEPVTVSWNSGALTSGVHTFPAVLQSSGLYSLSSVVTVPSSSLGTKTYTCNVDHKPSNTKVDKRVESKYGPPCPSCPAPEFLGGPSVFLFPPKPKDTLMISRTPEVTCVVVDVSQEDPEVQFNWYVDGVEVHNAKTKPREEQFNSTYRVVSVLTVLHQDWLNGKEYKCKVSNKGLPSSIEKTISKAKGQPREPQVYTLPPSQEEMTKNQVSLTCLVKGFYPSDIAVEWESNGQPENNYKTTPPVLDSDGSFFLYSRLTVDKSRWQEGNVFSCSVLHEALHSYTQKSLSLSLGK
light: DIQLTQSPSSLSASVGDRVTITCRASKSVDSYGNSFMHWYQQKPGKAPKLLIYLASELESGVPSRFSGSGSGTDFTLTISSLQPEDFATYYCQQNNEDPRTFGGGTKVEIKRTVAAPSVFIFPPSDEQLKSGTASVVCLLNNFYPREAKVQWKVDNALQSGNSQESVTEQDSKDSTYSLSSTLTLSKADYEKHKVYACEVTHQGLSSPVTKSFNRGEC
notes: also called HC5; LC6_m8
B4 was tested, and the IC50 [1] was 1.09 nM, the Kd [2] was 0.114 nM and the Kd [3] was 0.705 nM. The “TF-1 Proliferation Inhibition IC50” value [4] was 0.2 nM, the “TARC Inhibition IC50 (A549 cells)” value [5] was 1.02 nM and the “pSTAT6 Inhibition IC50 (HT-29 cells)” value [6] was 0.28 nM.

B5: Construct 138 (antibody, human IgG4, kappa)
heavy: EVQLLESGGGLVQPGGSLRLSCAASGFSLNAYSVNWVRQAPGKGLEWLGMIWGDGKIVYNSALKSRLTISKDSSKNTVYLQMNSLRAEDTAVYYCAGDGYYPYAMDNWGQGTTVTVSSASTKGPSVFPLAPCSRSTSESTAALGCLVKDYFPEPVTVSWNSGALTSGVHTFPAVLQSSGLYSLSSVVTVPSSSLGTKTYTCNVDHKPSNTKVDKRVESKYGPPCPSCPAPEFLGGPSVFLFPPKPKDTLYITREPEVTCVVVDVSQEDPEVQFNWYVDGVEVHNAKTKPREEQFNSTYRVVSVLTVLHQDWLNGKEYKCKVSNKGLPSSIEKTISKAKGQPREPQVYTLPPSQEEMTKNQVSLTCLVKGFYPSDIAVEWESNGQPENNYKTTPPVLDSDGSFFLYSRLTVDKSRWQEGNVFSCSVMHEALHNHYTQKSLSLSLGK
light: DIQLTQSPSSLSASVGDRVTITCRASKSVDSYGNSFMHWYQQKPGKAPKLLIYLASELESGVPSRFSGSGSGTDFTLTISSLQPEDFATYYCQQNNEDPRTFGGGTKVEIKRTVAAPSVFIFPPSDEQLKSGTASVVCLLNNFYPREAKVQWKVDNALQSGNSQESVTEQDSKDSTYSLSSTLTLSKADYEKHKVYACEVTHQGLSSPVTKSFNRGEC
notes: also called HC5; LC6_m8
B5 gave an IC50 [1] of 1.01 nM, a Kd [2] of 0.108 nM and a Kd [3] of 0.348 nM. For the same binder, the “TF-1 Proliferation Inhibition IC50” value [4] was 0.23 nM, the “TARC Inhibition IC50 (A549 cells)” value [5] was 0.97 nM and the “pSTAT6 Inhibition IC50 (HT-29 cells)” value [6] was 0.19 nM.

B6: Construct 132 (antibody, human IgG1, kappa, L234A L235A)
heavy: EVQLLESGGGLVQPGGSLRLSCAASGFSLNAYSVNWVRQAPGKGLEWLGMIWGDGKIVYNSALKSRLTISKDSSKNTVYLQMNSLRAEDTAVYYCAGDGYYPYAMDNWGQGTTVTVSSASTKGPSVFPLAPSSKSTSGGTAALGCLVKDYFPEPVTVSWNSGALTSGVHTFPAVLQSSGLYSLSSVVTVPSSSLGTQTYICNVNHKPSNTKVDKKVEPKSCDKTHTCPPCPAPEAAGGPSVFLFPPKPKDTLYITREPEVTCVVVDVSHEDPEVKFNWYVDGVEVHNAKTKPREEQYNSTYRVVSVLTVLHQDWLNGKEYKCKVSNKALPAPIEKTISKAKGQPREPQVYTLPPSRDELTKNQVSLTCLVKGFYPSDIAVEWESNGQPENNYKTTPPVLDSDGSFFLYSKLTVDKSRWQQGNVFSCSVMHEALHNHYTQKSLSLSPG
light: DIQLTQSPSSLSASVGDRVTITCRASKSVDSYGNSFMHWYQQKPGKAPKLLIYLASNLESGVPSRFSGSGSGTDFTLTISSLQPEDFATYYCQQNNEDPRTFGGGTKVEIKRTVAAPSVFIFPPSDEQLKSGTASVVCLLNNFYPREAKVQWKVDNALQSGNSQESVTEQDSKDSTYSLSSTLTLSKADYEKHKVYACEVTHQGLSSPVTKSFNRGEC
notes: also called HC5; LC6
For B6, the IC50 [1] was 0.99 nM, the Kd [2] was 0.135 nM and the Kd [3] was 0.331 nM. The “TF-1 Proliferation Inhibition IC50” value [4] was 0.13 nM, the “TARC Inhibition IC50 (A549 cells)” value [5] was 0.87 nM and the “pSTAT6 Inhibition IC50 (HT-29 cells)” value [6] was 0.37 nM.

B7: Construct 140 (antibody, human IgG1, kappa, L234A L235A)
heavy: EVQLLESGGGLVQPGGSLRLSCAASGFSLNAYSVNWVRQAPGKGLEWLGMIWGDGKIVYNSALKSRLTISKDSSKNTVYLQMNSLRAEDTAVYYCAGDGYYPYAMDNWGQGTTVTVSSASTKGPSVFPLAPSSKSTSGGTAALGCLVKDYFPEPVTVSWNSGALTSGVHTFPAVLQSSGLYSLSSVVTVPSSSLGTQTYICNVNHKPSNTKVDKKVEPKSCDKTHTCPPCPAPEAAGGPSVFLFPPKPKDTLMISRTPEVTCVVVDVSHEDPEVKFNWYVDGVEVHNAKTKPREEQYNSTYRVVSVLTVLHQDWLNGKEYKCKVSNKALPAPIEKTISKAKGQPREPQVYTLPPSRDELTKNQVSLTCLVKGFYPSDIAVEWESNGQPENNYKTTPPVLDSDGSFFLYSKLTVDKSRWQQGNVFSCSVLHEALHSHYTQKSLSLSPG
light: DIQLTQSPSSLSASVGDRVTITCRASKSVDSYGNSFMHWYQQKPGKAPKLLIYLASELESGVPSRFSGSGSGTDFTLTISSLQPEDFATYYCQQNNEDPRTFGGGTKVEIKRTVAAPSVFIFPPSDEQLKSGTASVVCLLNNFYPREAKVQWKVDNALQSGNSQESVTEQDSKDSTYSLSSTLTLSKADYEKHKVYACEVTHQGLSSPVTKSFNRGEC
notes: also called HC5; LC6_m8
B7 was tested, and the Kd [2] was 0.0475 nM, the Kd [3] was 0.252 nM and the “TF-1 Proliferation Inhibition IC50” value [4] was 0.14 nM. The “TARC Inhibition IC50 (A549 cells)” value [5] was 0.94 nM, the “pSTAT6 Inhibition IC50 (HT-29 cells)” value [6] was 0.33 nM and the Kd [7] was 0.02 nM.

B8: Tralokinumab (antibody, V domains shown)
VH: QVQLVQSGAEVKKPGASVKVSCKASGYTFTNYGLSWVRQAPGQGLEWMGWISANNGDTNYGQEFQGRVTMTTDTSTSTAYMELRSLRSDDTAVYYCARDSSSSWARWFFDLWGRGTLVTVSS
VL: SYVLTQPPSVSVAPGKTARITCGGNIIGSKLVHWYQQKPGQAPVLVIYDDGDRPSGIPERFSGSNSGNTATLTISRVEAGDEADYYCQVWDTGSDPVVFGGGTKLTVL
In the case of B8, the Kd [2] is reported as 0.116 nM, the Kd [3] is reported as 1.48 nM and the “TF-1 Proliferation Inhibition IC50” value [4] is reported as 0.59 nM. For the same binder, the “TARC Inhibition IC50 (A549 cells)” value [5] was 4.14 nM and the “pSTAT6 Inhibition IC50 (HT-29 cells)” value [6] was 0.41 nM.
